From the supplement of paper PMC11136658

Test system: peptide library, one residue held at a place counted from the Y acceptor
Assay: relative phosphorylation of the sub-library (ratio to the mean residue at this position); higher = residue favoured
Procedure, shortened: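 Every value reflects phosphorylation relative to the mean randomized residue. The sum of the 18 randomized residues, or 16 in the Ser/Thr-free library, served to normalize intensities at each position, which were then multiplied by that number. Intensities came from phosphorimaging with ImageQuant of biotinylated Tyr-centred peptides captured on streptavidin membranes after 90 min with purified recombinant kinases and 50 μM ATP plus γ-32P-ATP.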

IGF1R, construct: aa960-end, human, sequence (P08069 960-1367, looked up): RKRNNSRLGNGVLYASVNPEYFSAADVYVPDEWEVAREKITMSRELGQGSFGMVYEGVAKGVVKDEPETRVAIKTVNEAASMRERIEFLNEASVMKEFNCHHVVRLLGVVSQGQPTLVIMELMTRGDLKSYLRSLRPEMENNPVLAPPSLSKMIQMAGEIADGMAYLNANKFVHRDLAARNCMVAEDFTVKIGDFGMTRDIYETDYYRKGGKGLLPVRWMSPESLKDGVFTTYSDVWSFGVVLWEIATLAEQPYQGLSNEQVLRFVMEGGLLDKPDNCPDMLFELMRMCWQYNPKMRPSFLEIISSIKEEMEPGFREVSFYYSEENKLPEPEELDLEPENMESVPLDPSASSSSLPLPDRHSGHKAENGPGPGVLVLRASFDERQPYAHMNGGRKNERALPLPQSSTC
FGFR3, construct: aa397-end, human, sequence (P22607 397-806, looked up): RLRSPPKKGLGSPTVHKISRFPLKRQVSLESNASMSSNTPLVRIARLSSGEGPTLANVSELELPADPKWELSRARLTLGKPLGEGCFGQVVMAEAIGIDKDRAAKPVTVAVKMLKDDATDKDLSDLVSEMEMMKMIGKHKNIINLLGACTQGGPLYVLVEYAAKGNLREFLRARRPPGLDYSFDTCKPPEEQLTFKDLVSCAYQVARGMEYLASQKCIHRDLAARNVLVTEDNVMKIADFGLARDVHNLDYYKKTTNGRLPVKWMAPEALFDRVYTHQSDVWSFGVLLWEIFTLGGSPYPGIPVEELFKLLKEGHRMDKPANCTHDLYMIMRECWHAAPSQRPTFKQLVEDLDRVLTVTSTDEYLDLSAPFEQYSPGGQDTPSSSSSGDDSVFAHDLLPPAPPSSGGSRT

FGFR3, construct: aa397-end, human (from UniProt P22607)
relative phosphorylation
Details	at +1	at +2	at +3	at +4	at +5	at -1	at -2	at -3	at -4	at -5
A fixed	0.858	0.5	0.465	0.794	1.13	0.737	0.867	0.899	1.1	0.986
D fixed	0.4	1.08	0.618	1.07	1.09	2.51	1.3	1.51	1.22	1.19
E fixed	0.764	1.5	0.479	1.15	0.944	1.71	1.58	1.73	1.42	1.01
F fixed	1.96	1.73	1.58	1.17	1.08	0.94	0.733	0.807	0.933	0.929
G fixed	0.32	0.27	0.378	0.913	1.22	0.452	1.05	0.939	1.25	1.15
H fixed	1.7	0.959	0.873	1.1	0.962	1.47	1.2	1.17	1.07	1.2
I fixed	1.19	0.857	2.07	0.872	0.763	1.1	0.57	0.533	0.738	0.651
K fixed	0.452	0.502	0.297	0.913	0.753	0.438	1.05	0.976	0.935	1.27
L fixed	1.01	1.46	2.18	0.962	0.881	1.05	0.863	0.663	0.759	0.75
M fixed	1.17	1.46	2.26	1.06	1.05	0.766	0.761	0.747	0.901	0.854
N fixed	0.458	1.01	0.416	0.828	0.943	1.33	1.24	1.35	0.924	1.15
P fixed	1.1	0.528	0.562	1.13	1.22	0.786	0.951	0.904	1.2	1.08
Q fixed	0.865	0.85	0.68	1.05	0.923	0.896	1.14	1.01	1.1	1.01
R fixed	0.577	0.607	0.428	0.953	0.814	0.396	1.1	1.04	1.01	1.27
S fixed	0.709	0.566	0.481	0.931	1.07	0.614	1.09	1.17	0.867	0.971
T fixed	0.867	0.712	0.604	0.814	1.03	0.797	1.01	0.946	0.704	0.82
V fixed	1.59	0.952	1.61	0.948	0.939	0.885	0.732	0.595	0.7	0.682
W fixed	2	2.47	2.02	1.34	1.18	1.14	0.767	1.02	1.17	1.02
pThr fixed	0.874	1.88	0.666	0.864	0.943	1.61	1.28	1.44	1.2	1.16
pTyr fixed	3.07	3.28	0.631	0.962	1	3.24	1.85	1.83	1.55	1.31

FGR, construct: Full length, human (from UniProt P09769)
relative phosphorylation
Details	at +1	at +2	at +3	at +4	at +5	at -1	at -2	at -3	at -4	at -5
A fixed	2.2	1.05	0.869	0.85	0.72	0.929	0.952	0.88	1.03	0.985
D fixed	0.746	0.588	0.464	0.599	0.901	1.07	1.48	1.52	1.29	1.1
E fixed	0.732	0.949	0.432	0.759	0.875	1.89	1.37	1.52	1.36	0.85
F fixed	0.643	1.12	2.33	1.21	1.25	0.601	0.711	0.915	1.07	1.07
G fixed	2.67	0.888	0.927	1.31	0.896	0.558	1.5	1.15	1.15	1.24
H fixed	0.762	0.846	0.969	0.953	0.936	1.45	0.995	0.999	0.933	0.966
I fixed	0.827	0.906	1.3	0.792	0.71	1.86	0.626	0.635	0.829	0.907
K fixed	0.485	0.947	0.664	1.16	1.27	0.32	0.641	0.792	0.856	0.991
L fixed	0.669	0.903	0.954	0.884	0.831	1.02	0.747	0.746	1.07	0.939
M fixed	1.01	1.02	0.806	1.05	0.751	0.754	0.576	0.799	0.83	0.945
N fixed	0.757	1.02	0.666	0.928	1.14	0.683	1.56	1.26	0.798	1.06
P fixed	0.226	0.839	1.02	1.2	0.977	2.09	0.878	1.02	1.17	1.15
Q fixed	0.959	0.987	0.726	1.06	0.95	0.753	1.16	0.922	1.04	0.944
R fixed	0.519	1.22	0.98	1.39	1.4	0.291	0.738	0.883	0.875	1.1
S fixed	1.52	1.14	0.882	0.862	1.11	0.572	1.43	1.19	0.841	0.875
T fixed	1.14	1.2	0.795	0.893	1.06	1.21	1.03	0.908	0.681	0.748
V fixed	0.955	0.904	1.05	0.781	0.712	1.38	0.738	0.594	0.733	0.749
W fixed	1.17	1.48	2.17	1.33	1.52	0.556	0.859	1.26	1.45	1.38
pThr fixed	1.35	1.11	0.787	0.528	0.963	1.12	1.48	1.74	1.05	1.02
pTyr fixed	1.57	1.13	0.585	0.593	0.94	0.966	2.02	1.99	1.38	1.05

IGF1R, construct: aa960-end, human (from UniProt P08069)
relative phosphorylation
Details	at +1	at +2	at +3	at +4	at +5	at -1	at -2	at -3	at -4	at -5
A fixed	1.7	0.629	0.386	0.818	0.794	1.07	1.11	0.892	1.01	0.847
D fixed	0.473	0.626	0.286	1.12	0.708	3.28	1.46	1.52	1.41	1.33
E fixed	0.838	1.42	0.255	1.68	0.671	1.61	1.71	1.77	1.86	1.05
F fixed	1.68	1.48	2	1.45	2.54	0.717	0.697	1.1	1.05	1.01
G fixed	0.585	0.273	0.367	0.844	0.83	0.547	1.18	0.991	1.03	1.06
H fixed	1.42	0.838	1.57	1.19	1.03	0.864	0.937	1.05	0.915	0.963
I fixed	1.28	1.15	1.94	0.843	0.91	1.2	0.736	0.654	0.819	0.997
K fixed	0.216	0.408	0.307	0.679	0.648	0.21	0.8	0.711	0.863	0.983
L fixed	1.08	1.59	1.35	0.694	1.02	0.964	0.839	0.798	0.886	0.916
M fixed	2.42	1.67	1.43	1.01	0.951	0.744	0.651	0.853	0.875	0.954
N fixed	0.319	0.74	0.288	0.787	0.764	1.83	1.34	1.4	0.971	1.12
P fixed	0.311	0.589	0.291	0.796	1.62	1.11	1.1	0.914	0.98	1.06
Q fixed	0.646	0.733	0.353	1.12	0.674	0.663	1.16	0.922	1.14	1.09
R fixed	0.178	0.588	0.433	0.799	0.914	0.239	0.893	0.899	0.977	1.12
S fixed	0.879	0.659	0.423	0.883	0.841	0.75	1.16	1.01	0.82	0.858
T fixed	0.755	0.661	0.525	0.86	0.704	0.778	0.86	0.973	0.645	0.864
V fixed	1.51	1.13	1.21	0.873	0.695	0.966	0.739	0.652	0.787	0.788
W fixed	1.71	2.83	4.6	1.55	1.68	0.451	0.63	0.901	0.967	0.983
pThr fixed	1.78	0.865	0.247	0.783	0.704	2.1	1.17	1.37	1.18	1.1
pTyr fixed	1.8	2.89	0.461	1.93	0.573	6.45	2.12	1.56	1.65	1.48
